Positions count from the first letter of the chain named. Like-named read-outs stand apart in the source and are kept apart here.

Consider two molecules from patent US20230374153A1 (PARADIGM IMMUNOTERAPEUTICS, published 2023).

Test [1] deals with T1, SARS-CoV-2 Spike Trimer, His Tag B.1.1.529/Omicron (ACRO Biosystems Cat. No. SPN-052Hz) (SARS-CoV-2, UniProt P0DTC2 16-1213).
The target of test [2] is T2, SARS-CoV-2 (COVID-19) S protein RBD, His Tag B.1.1.529/Omicron (ACRO Biosystems Cat. No. SPD-052H3) (SARS-CoV-2, UniProt P0DTC2 319-537).
T2 construct: domain: RBD; also called Omicron RBD only; Omicron variant RBD
The test is described as follows: SPR (Biacore T200, ACRO Biosystems), 1:1 model. Background: SPR reads the build-up and loss of mass on a sensor chip optically.

Test [3] has as its target T3, SARS-CoV-2 Delta variant B.1.617.2, RBD only (SARS-CoV-2, UniProt P0DTC2 319-537).
T3 construct: domain: RBD; also called RBD of the Delta B.1.617.2 variant
Nature of the test: SPR (Biacore T200, ACRO Biosystems), 1:1 model.

Test [4] deals with T1, SARS-CoV-2 Spike Trimer, His Tag …. Nature of the test: SPR (Biacore T200, ACRO Biosystems), 1:1 model.
Test [5] has the same target. The source holds these as a separate data set.
Test [6] addresses SARS-CoV-2 Omicron BA.5 (live virus; spike protein) (SARS-CoV-2, UniProt P0DTC2 14-1273). The test is described as follows: cell-based or functional assay.
Test [7] deals with SARS-CoV-2 Omicron BA4.6 spike protein trimer (SARS-CoV-2, UniProt P0DTC2 16-1213). Nature of the test: SPR (Biacore 8K, ACRO Biosystems), 1:1 model.
Test [8] concerns the target SARS-CoV-2 Omicron XBB.1 spike protein trimer (SARS-CoV-2, UniProt P0DTC2 16-1213). The test is described as follows: SPR (Biacore 8K, ACRO Biosystems), 1:1 model.
Test [9] has as its target SARS-CoV-2 Omicron BQ.1.1 spike protein trimer (SARS-CoV-2, UniProt P0DTC2 16-1213). Nature of the test: SPR (Biacore 8K, ACRO Biosystems), 1:1 model.
In test [10] the target is T1, SARS-CoV-2 Spike Trimer, His Tag …. The source holds these as a separate data set.
For test [11], the target named is T4, SARS-CoV-2 Omicron BA.2.75 spike protein trimer (SARS-CoV-2, UniProt P0DTC2 16-1213).
T4 construct: also called Omicron subvariant BA2.75 spike trimer
Nature of the test: SPR (Biacore T200, ACRO Biosystems), 1:1 model.

Test [12] addresses SARS-CoV-2 Omicron BA.5 spike protein trimer (SARS-CoV-2, UniProt P0DTC2 16-1213). Nature of the test: SPR (Biacore T200, ACRO Biosystems), 1:1 model.

B1: ACE2 LVE IgG Fc STR chimeric antibody (LiVE) (Fc fusion)
chain: QSTIEEQAKLFLDKFNVEAEDLFYQSSLASWNYNTNITEENVQNMNNAGDKWSAFLKEQSTLAQMYPLQEIQELTVKLQLQALQQNGSSVLSEDKSKRLNTILNTMSTIYSTGKVCNPDNPQECLLLEPGLNEIMANSLDYNERLWAWESWRSEVGKQLRPLYEEYVVLKNEMARANHYEDYGDYWRGDYEVNGVDGYDYSRGQLIEDVEHTFEEIKPLYEHLHAYVRAKLMNAYPSYISPIGCLPAHLLGDMWGRFWTNLYSLTVPFGQKPNIDVTDAMVDQAWDAQRIFKEAEKFFVSVGLPNMTQGFWENSMLTDPGNVQKAVCHPTAWDLGKGDFRILMCTKVTMDDFLTAHHEMGHIQYDMAYAAQPFLLRNGANEGFHEAVGEIMSLSAATPKHLKSIGLLSPDFQEDNETEINFLLKQALTIVGTLPFTYMLEKWRWMVFKGEIPKDQWMKKWWEMKREIVGVVEPVPHDETYCDPASLFHVSNDYSFIRYYTRTLYQFQFQEALCQAAKHEGPLHKCDISNSTEAGQKLFNMLRLGKSEPWTLALENVVGAKNMNVRPLLNYFEPLFTWLKDQNKNSFVGWSTDWSPYADQSIKVRISLKSALGDKAYEWNDNEMYLFRSSVAYAMRQYFLKVKNQMILFGEEDVRVANLKPRISFNFFVTAPKNVSDIIPRTEVEKAIRMSRSRINDAFRLNDNSLEFLGIQPTLGPPNQPPVSGGGGSGGGGSDKTHTCPPCPAPESTRGPSVFLFPPKPKDTLMISRTPEVTCVVVDVSHEDPEVKFNWYVDGVEVHNAKTKPREEQYNSTYRVVSVLTVLHQDWLNGKEYKCKVSNKALPAPIEKTISKAKGQPREPQVYTLPPSRDELTKNQVSLTCLVKGFYPSDIAVEWESNGQPENNYKTTPPVLDSDGSFFLYSKLTVDKSRWQQGNVFSCSVMHEALHNHYTQKSLSLSPGK
For orientation: Kd means a measure of binding affinity in units of concentration. Read a high Kd as lower affinity. The term koff denotes the rate constant with which the complex falls apart. Lower therefore signals slow dissociation. The term kon denotes the rate constant with which the complex forms. Read a high kon as faster complex formation. Turning to B1, the Kd in test [1] was determined as 0.114 nM; in test [2], 0.308 nM; in test [3], 0.554 nM; in [4] it was 0.144 nM; in [5], 0.144 nM. Also, the koff in test [5] came out at 0.000153 s⁻¹. In test [5], this molecule had an on-rate constant (kon) of 1.06e+06 M⁻¹ s⁻¹. The “IC50 of inhibition of viral replication (human airway organoids)” value in test [6] turned out to be 0.0299 µg/mL.

B2: ACE2 LVE IgG Fc STR YTE chimeric antibody (LiVE Longer) (Fc fusion)
chain: B1 chain with M765Y, S767T, T769E
With B2, the Kd in test [7] is 0.845 nM; in test [8], 0.215 nM; in test [9], 0.00181 nM; in test [1] it was 0.0734 nM; in test [2], 0.402 nM; in test [11], 0.000133 nM. Also, the Kd in [12] stood at 0.00543 nM; in test [4] it was 0.073 nM. Moreover, the koff in [10] was found to be 0.000117 s⁻¹. This molecule displayed a kon in [10] of 1.59e+06 M⁻¹ s⁻¹. Moreover, the “IC50 of inhibition of viral replication (human airway organoids)” value in test [6] is 0.0269 µg/mL.
